Assay results as given in the nanobody polyreactivity screen of Harvey et al. (2022).

Assay: yeast display, Sf9 membrane polyspecificity reagent, FACS + sequencing; frameworks hold sequencing errors
How it was run: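 Nanobodies came from a synthetic yeast display library in Saccharomyces cerevisiae BJ5465, induced with galactose for 36–48 hours and stained for 1 hour at 4 °C with 10% biotinylated, detergent-solubilized Sf9 membrane reagent. Cells were enriched on streptavidin microbeads and then FACS-sorted, with low and high (top ~1%) gates set on anti-HA fluorescence for expression and streptavidin fluorescence for reagent binding. Each polyreactivity label reflects the gate a clone came from. Genes were amplified by colony PCR, sequenced by MiSeq 2 × 250 and filtered by CDR length.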

Row | Sequence | polyreactivity (PSR sort gate)
1 | QVQLVESGARLVQAGGSLRLSCAPSGSIFAYNAMGWYRQAPGKERELVAAITKSGGSTYYADSVKGRFTISRDHAKNTVYLQMNSLKPEDTAVDYCNVVVPHSISSHGDYWGQGTQVTVSS | low polyreactivity
2 | QVQLVESGEGLVQAGGRLRLSCAPSGSTFMTYAMGWYRQAPGKERELVAAIRWSGGGTYYADSVKGRFTISRDNAKNTVYLQMNSLKPEDTAVYYGAADHFNYTPGRDYWGQGTQVTVSS | low polyreactivity
3 | QVQLVESGEGLVQAGGSLSLSCAASGRIFYAYVMGWYRQAPGKERELVAAIDRRSTYYADSVKRRFTISRDNAKNTVFFQMNSLKPEDTAVYYCAARSTYSYYIRGYWGLGTQVTVSS | high polyreactivity
4 | QVQLVESGGALLQAGGSLRLSCAASGFIFRYYAMGWYRQAPGKERELVAAISESGASTYYADSVKGRFTISRDNAKNSVYLQMNSLKPEVTAVYYCAAKPRNSGPYYFYDLNYWGQGTQVTVSS | high polyreactivity
5 | QVQLVESGGALVQAGASLRLSCAASGRTFPLYAMGWYRQAPGKEMELVAAISARGSSTYYADSVKGRFTISRDNAKNTVYLQMNSLKAEDNAVYYCAAKRSYPYGSGYWGQGSQVTVSS | high polyreactivity
6 | QVQLVESGGALVQAGCSLRLSCAASGRTFGRNTMGWYRQAPGKERELVAGISRSAGRTYYADSVKGRFTISRDNAKNNVYLQMNSLKAEDTAVYYCAARYQGNYRTDKYDYWGQGTQVTVSS | high polyreactivity
7 | QVQLVESGGALVQAGGSHRLSCAASGSTFATYAMGWYRQAPGNEREFVAVITRGGRTYYADSVKGRFTISRDNAKITVYLQMNSLKPEDTAVYYCAAGSGNFVTRYRYGYWGQGTQVTVSS | high polyreactivity
8 | QVQLVESGGALVQAGGSIRLSCAASGSTFAYYAMGWYRQATGKERELVAAINWRTYYADSVKGRFTISRDNAKNTVYLQMNSLKPEDSAVYYCAAGYYRNKFYYWGQGTQVTVSS | high polyreactivity
9 | QVQLVESGGALVQAGGSLRISCAASGFTFHKNAMGWYRQAPGKERELVAAITYRGGSTYYADSVKGRFTISRDNAKNTVYLQMNSLKPEDTSVYYCAAELRPYITYDGPRKKFYFWGQGTQVTVSS | high polyreactivity
10 | QVQLVESGGALVQAGGSLRISCAASGFTLQRNTMGWYRQAPGKDREFVAAISVRGGSTYYADSVKGRFTNSRDTAKNTVYLQMNSLKPEDTAVYYCAAVGRPSQYSYPYGYWGQGTQVTVSS | high polyreactivity
11 | QVQLVESGGALVQAGGSLRLSCAASGFIFRYYAMGWYRQAPWKERELVATITGRGGSTYYADSVKGRFTISRDNAMNTVYLQMNSLKPEDTAVYYCAKRGYGRYYAYDYWGQGTQVTVSS | high polyreactivity
12 | QVQLVESGGALVQAGGSLRLSCAASGFIICYYAMGSYRQAPGKDRELVAAITSGTSTSYADSVKGRFTISRDNAKNTVYLQMNSLKQEDTAVYYCGADVVRSNFYGTFLYDYDYWGQGTQVTVSS | low polyreactivity
13 | QVQLVESGGALVQAGGSLRLSCAASGFTFFRNAMGWYRQAPGKERELVAAISGSGGSTYYADSVKGRFTISRDNAKNTVYLQMNSLKPEDTAVYYCATYSYPAKVREAYNYWGQGTQVTVSS | low polyreactivity
14 | QVQLVESGGALVQAGGSLRLSCAASGFTFNVYAMGWYRPAPGKERELVAAITSSGGSTYYADSVKGRFTISRDNAKNTVYLQMNSLIPDDTAVYYCNVVRDWLLYRGSYIVKFDYWGQGTQVTVSS | high polyreactivity
15 | QVQLVESGGALVQAGGSLRLSCAASGFTFRSYVMGWYRQAPGKERELVAAISGSGASTYYADSVKGRFTLSRDNAKNTVYLQMNSLKPEDTAVYYCAATSPYKYWYRYNYWGHGTQVTVSS | high polyreactivity
16 | QVQLVESGGALVQAGGSLRLSCAASGFTFTINDMGWYRQAPGKERELVATINDSAGSTYYADSVKGRFTISRDNAKNTVYLQMNSQKPDATAVYYCNAYKATRWFEYVYWGQGTQVTVSS | low polyreactivity
17 | QVQLVESGGALVQAGGSLRLSCAASGIIFWLYDMGWSRQAPGKERELVAVMTWSGDSTYADSVKGRFTISRDNAKNTVYLQMNSLKPEDNAVYYCAAREYYRKPYDHWGQGTQVTVSS | high polyreactivity
18 | QVQLVESGGALVQAGGSLRLSCAASGIVFKRYAMGWYRQAPGKEREFVATISYTGGRTYYADSVKGRFTISRDNAKNTVYLQMNSLKPEDTAVYYCATLYRSSKHQPLDYWGQGTQVNVSS | high polyreactivity
19 | QVQLVESGGALVQAGGSLRLSCAASGRIFRSYVMGWYRQAPGKERELVATITGGGRTNYADSVKGRFTISRDNAKNTVYLQMTSLKPEDTAVYYCAGVYRWWPFHAFDYWGQGTQVTVSS | high polyreactivity
20 | QVQLVESGGALVQAGGSLRLSCAASGSIFGEYTMGWYRQAPGKEWELVAAIRSGGDTYYADSVKGRFTLSRDKAKNTVYLQMNSLKPEDTAVYYCNAYWVRHYIMDYWGQGTQVTVSS | low polyreactivity
21 | QVQLVESGGALVQAGGSLRLSCAASGSIFYTNAMGWYRQAPGKERELVAAIRWSGGRTYYADSVKGRFTISRDNAKNTVYLQMNSLKPEDTAVYYCNKVPRTPIPYKYGDWGQGTHVTVSS | high polyreactivity
22 | QVQLVESGGALVQAGGSLRLSCAASGSLFERYAMGWYRQAPVKEREFVATITSGGGRTYYADSVKGRFTISRDNAKNTVYLQMNSLQPEDTAVYYCTAVYRARSYDYWGQGTQVTVSS | high polyreactivity

Row | Sequence | polyreactivity (PSR sort gate)
23 | QVQLVESGGALVQAGGSLRLSCAASGSTFEDYAMRSSRQAPGKARELVAAISHIGGSTYYADSVKGRFTISRDNAKNTVYLQMNSLKPEDTAVYYCAKGVYSDLGYWAQGTQVTVSS | low polyreactivity
24 | QVQLVESGGALVQAGGSLRLSCAASGSTFFINAMGWYRQAPGKERELVAAITSTDSTTYADSVKGRFTISRDNAKNTVYLQMNSLKPEDTAVYYCAKESIGQDPVSGAWARHEYDYWGQGTQVTVSS | low polyreactivity
25 | QVQLVESGGALVQAGGSLRLSCAASGSTFRYYAMGWYRQAPGKERELVAAIRWSGDSTYYADSVKGRFTISRDNAKNTVYLQMNSLKPEDTAVYYCAADRQRSHRVGTKGHRVGYWGQGTQVSVSS | high polyreactivity
26 | QVQLVESGGALVQAGGSLRLSCAASGSTFVQNAMGWYRQAPGKDRELVAAITIGGGSTYYADSVKGRFTISRDNAKNTVYLQMNSLKPEDTAVYYCAVEVGNPQLAYSYDYWGQGTQVTVSS | low polyreactivity
27 | QVQLVESGGALVQAGGSLRLSCAASGSTFYWNTMGWYRQAPGKERELVASITRGGSTYYADSVKGRFTISRDNAKNTVYLQMNSLKPEDSAVYYCNVLAWSYGYRYYSWGQGTQVTVSS | high polyreactivity
28 | QVQLVESGGALVQAGGSLRLSCAASGTTFHSYPMGWYRQAPGKERELVAAISNGGRTNYADSVNGRFTISRDNAKNTVYLQMNSLKPVDTAVYYCAVRLYRDSSYYYWGQGTQVTVSS | low polyreactivity
29 | QVQLVESGGALVQARGSLRLSCSASGSTFFHNFKGWYRQEPGKERELVAAISGSGTRSYYADSVKGRFTISRDNAKNTVYLQMNSLKPEDTAVYYCNVVPLRVPSYLPKYYYWGQGTQVTVSS | high polyreactivity
30 | QVQLVESGGALVQEGGSHRLSCAASRRIFVVYAMGWYRQAPGKERELVAAISKRRGSTYYADSVKGRFTISRYNAKNTVYLQMKSQKPEDTAVYYCAVEGVIWSFWPYEYWGQGTQVTVSS | high polyreactivity
31 | QVQLVESGGALVQEGRSLRLSCAASGGTFADYPMGWYRQAPVKERELVAAITNGGSTFYADSVKGRFTSSRDNATNTVYLQMNSLKPDDTAVYYWSAVYLYAYSPYFSAVEMYYWGQGSQVTVSS | low polyreactivity
32 | QVQLVESGGCIVQAGGSLRLSCAASGSIFTYNAMGWYRQAPGKERELVAAISASGGRTYYADSVKGRFTISRDNAKNTVYLQMNSLKPEDTAVYYCAARILVYGLRRFDYWGQGTQVNVSS | high polyreactivity
33 | QVQLVESGGCIVQAGGSLRLSSPASGRNFTRYGKGWDRQAPRKERELVAAISKSTGNTYYADCVKGRFTISRDFAKNTVYLQMNSLKPEDTAVYYCAASKNKRPPYDYWGQGTQVNVSS | high polyreactivity
34 | QVQLVESGGCLFQEGGSLRLSCSASGRIFNTYAMVWYRQAPGKERELVARISSGGTTYYADSVKGRFTISRDNAKNTVYLQMNSLKPEDTAVYFCNVRAVTPTRSRPFRYDYWGQGTQVTVSS | high polyreactivity
35 | QVQLVESGGCLLQAGGSLSLSCAASGSTSPANTMGWYRQAPGKEREFVAGISRRGGRTYYADSVKGRFTISRDTAKNTVYLQMNSLKPEDTAVYYSATALIVRGPSRYEYWGHGTQVTVSS | high polyreactivity
36 | QVQLVESGGCLVKAGGSLRLSCAASGSIFGHYAMGWYRQAPGKERELVASIDSGGRTNYADSVKGRFTISLDNAKNTVYLQMISLKPEDTGVYYCNTTSVKTRGYGYWGQGSQVTVSS | low polyreactivity
37 | QVQLVESGGCLVKAGGSLRLSSAASGSTFYYYAMGWYRQAPGKERELVAAITVNGGSTYYADSVKGRFTISRDNANNTVYLQMNSLKPGVTAVYYCAADDTYWVYPYTYSTYEYWGQGNQVTVSS | low polyreactivity
38 | QVQLVESGGCLVQAGASLRLSCAASGSISKSYAMGWYRQAPGKEREFVAAISWRGGSTYADSVKGRFTISRDNAKNTVYLQMNSLKPEDTAVYYCAATNYGTFWGGQSERYDYWGQGSQVTVSS | low polyreactivity
39 | QVQLVESGGCLVQAGGSHRLSCAASGLTFPKYAMGWYRQAPGKERELVARISYSGASTYYADSVKGRFTISRDNAKNTVYLHMNSLKPEDTAVYYCYARIYRVFYVHFAPYYYWGQGTQVTVSS | high polyreactivity
40 | QVQLVESGGCLVQAGGSLRLICAASGNTFYVYAMGWYRQAPGKERELVAAITWSGGSTNYADSVKGRYTISRDNAKNTVYLQMNSLKPEDSAVYYCKADYWTFSPYDYWGQGTQVTVSS | low polyreactivity
41 | QVQLVESGGCLVQAGGSLRLICAASGSIFDYNAMGWYRQAPGKERELVADITLSDDSTYYADSVKGRFTISRDNAKNTVYLQKNSLKPEDTAVYYCAADIKYYWYYYYWAYAYDYWGQGTQVTVSS | high polyreactivity
42 | QVQLVESGGCLVQAGGSLRLICAASVSIFYYYAMGWYRQAPGKERELVATIRSSDGSTYYADSVKGRFTISRDNAKNTVYLQMYSLKPEDTAVYYCAHGYFRYDYWGQGTQVSVSS | low polyreactivity
43 | QVQLVESGGCLVQAGGSLRLRCAASGPNFPGYTKGWYRHAPRKAREFVAAISYSGGSTYADSVKGRFTISRDNAKNTVYLQMNSLKPEDTSVYYCAVFLQHWLDMYYWGQGTQVNVSS | low polyreactivity
